# From patent US20260108605A1
# Biological target: antibody anti-FITC IgG1 (prepared in-house)
# Assay: SPR, Biacore 8K; anti-FITC IgG1 captured on Protein A chip, CD16a protein as analyte
Substance,Kd [nM],koff [s⁻¹],kon [M⁻¹ s⁻¹]
"1600E, recombinant fragment of the extracellular domain of CD16a protein with natural mutation F176V (from UniProt P08637 17-208) (receptor)",484,0.119,245000
"1600WE, recombinant fragment of the extracellular domain of wild-type CD16a protein (from UniProt P08637 17-208) (receptor)",2600,0.258,99500
"1602E, recombinant fragment of the extracellular domain of CD16a protein with point mutation Q192P (from UniProt P08637 17-208) (receptor)",557,0.119,214000
"1604E, recombinant fragment of the extracellular domain of CD16a protein with point mutation L194P (from UniProt P08637 17-208) (receptor)",477,0.113,236000
"1615E, recombinant fragment of the extracellular domain of CD16a protein with point mutation A195V (from UniProt P08637 17-208) (receptor)",576,0.113,196000
"1623E, recombinant fragment of the extracellular domain of CD16a protein with point mutation V196G (from UniProt P08637 17-208) (receptor)",418,0.105,251000
"1625E, recombinant fragment of the extracellular domain of CD16a protein with point mutation V196Q (from UniProt P08637 17-208) (receptor)",415,0.112,270000
"1626E, recombinant fragment of the extracellular domain of CD16a protein with point mutation V196M (from UniProt P08637 17-208) (receptor)",476,0.114,240000
"1627E, recombinant fragment of the extracellular domain of CD16a protein with point mutation V196H (from UniProt P08637 17-208) (receptor)",402,0.107,267000
"1630E, recombinant fragment of the extracellular domain of CD16a protein with point mutation S197P (from UniProt P08637 17-208) (receptor)",448,0.117,260000
"1632E, recombinant fragment of the extracellular domain of CD16a protein with point mutation Q192N (from UniProt P08637 17-208) (receptor)",479,0.117,244000
"1635E, recombinant fragment of the extracellular domain of CD16a protein with point mutation L194I (from UniProt P08637 17-208) (receptor)",506,0.121,240000
"1637E, recombinant fragment of the extracellular domain of CD16a protein with point mutation V196S (from UniProt P08637 17-208) (receptor)",391,0.101,257000
